In general, stoichiometry N refers to the number of molecules, sites or subunits per partner or assembly. Usually Kd stands for the constant that tells how readily two partners part at equilibrium.

Data on three substances can be found in paper PMC8361300.

Test [1] has as its target Nucleobindin-2 from Gallus gallus (ggNucb2) (Gallus gallus). As to the kind of experiment: SAXS; protein 3.5 mg/ml with 5 mM EDTA, 10 mM Ca2+, 10 mM Mg2+ or 100 µM Zn2+; molecular mass from I(0) against BSA.
The target is the same in test [2]. Briefly: AUC; sedimentation velocity, 50,000 rpm, 20 °C, buffer C (20 mM Tris-HCl, 150 mM NaCl, pH 7.5) with 100 µM ZnCl2 (also 200 and 300 µM); protein 0.5, 0.75 and 1.0 mg/ml; c(s) model.
In test [3] the target is Nucleobindin-2 from Gallus gallus (Gallus gallus). Briefly: ITC; Ca2+ (4000 µM) titrated into ggNucb2 (50 µM), 25 °C, 20 mM HEPES, 150 mM NaCl, pH 7.5; broad range fit to the AA BB model with ligand-mediated dimerization ((A + A) + B + B to (AA)BB) in SEDPHAT; constant of the step monomers to dimer.
Test [4] has as its target Nucleobindin-2 from Homo sapiens (hsNucb2) (Homo sapiens). As to the kind of experiment: SAXS; protein 3.5 mg/ml with 5 mM EDTA, 10 mM Ca2+, 10 mM Mg2+ or 100 µM Zn2+; molecular mass from I(0) against BSA.
For test [5] the target is unchanged. As to the kind of experiment: AUC; sedimentation velocity, 50,000 rpm, 20 °C, buffer C (20 mM Tris-HCl, 150 mM NaCl, pH 7.5) with 5 mM EDTA (apo); protein 0.5, 0.75 and 1.0 mg/ml; c(s) model.

On to “Nucleobindin-2 from Gallus gallus (ggNucb2) (natural protein)”, for which the stoichiometry N was 2 in test [1] and greater than 2 in test [2].

Turning to “Nucleobindin-2 from Gallus gallus (natural protein)”, in test [3], the equilibrium dissociation constant (Kd) worked out at 16 nM.

For the substance “Nucleobindin-2 from Homo sapiens (hsNucb2) (natural protein)”, the stoichiometry N in test [4] and in test [5] was 2 each time.
